In US20240343818A1, “Antibodies Having Humanized Framework Regions” (priority 2021, published 2024):

What was measured:
Karpas 299 xenograft = Karpas 299 xenograft with CD30 ADCs; format: in vivo, mice
Protocol: (§1) Female CB17/SCID mice were used (6 mice/group) for the study. Animals were inoculated subcutaneously in the flank with 5 million cells in PBS. When tumors reached an average volume of 214 mm^3, animals were treated with vehicle alone, with unconjugated antibody (3 mg/kg), or with an ADC at 1.5 or 3 mg/kg. The animals were monitored twice weekly for body weight and tumor size. Animals were euthanized when tumors reached 2000 mm^3. ADCs were highly efficacious in this study.

L-82 xenograft = L-82 xenograft with CD30 ADCs; format: in vivo, mice
Protocol: as §1, with “Female NOD/SCID” for “Female CB17/SCID”, “used (8” for “used (6”, “with 10” for “with 5”, “in 50% PBS/50% Matrigel.” for “in PBS.”, “of 100” for “of 214”, “mm^3, all animals were treated (Day 0) with a single 10 mg/kg intravenous dose of human IgG. Then, on Day 1,” for “mm^3,”

[1] = Forced stability of ADCs, high-molecular weight species by size-exclusion chromatography; format: physicochemical; conditions: for HWM pH 5.5, 3 d 45° C.: pH 5.5, 3 d at 45° C.; for HWM pH 5.5, 3 d −80° C.: pH 5.5, 3 d at −80° C.; for HWM pH 7.2, 3 d 45° C.: pH 7.2, 3 d at 45° C.; for HWM pH 7.2, 3 d −80° C.: pH 7.2, 3 d at −80° C.
Source text: ADCs were conjugated at the antibody heavy chain C-terminus to a noncleavable linker bearing a maytansine payload for a DAR of ˜1.9. Samples were placed in buffer at the designated pH and temperature for 3 days, then analyzed by size-exclusion chromatography. HMW, high-molecular weight species.

[2] = Melting temperature by differential scanning fluorimetry; format: physicochemical
[3] = single intravenous dose, ADC 1.5 or 3 mg/kg, unconjugated antibody 3 mg/kg
[4] = ADC (heavy chain C-terminus, noncleavable maytansine linker-payload, DAR ~1.9)

Row | Molecule | complete responses (Karpas 299 xenograft; Karpas 299 xenograft, CB17/SCID mice, 6 mice/group, single intravenous dose 3 mg/kg (equal dosing)) | complete responses (L-82 xenograft; L-82 xenograft, NOD/SCID mice, single intravenous dose 3 mg/kg (equal dosing)) | efficacy in Karpas 299 xenograft (Karpas 299 xenograft; [3]) | efficacy in L-82 xenograft (L-82 xenograft; [3]) | HWM pH 5.5, 3 d 45° C. [1] | HWM pH 5.5, 3 d −80° C. [1] | HWM pH 7.2, 3 d 45° C. [1] | HWM pH 7.2, 3 d −80° C. [1] | Fab Tm [2, 4] | Fab Tm ([2]; Antibody)
1 | Adcetris: anti-CD30 ADC used as comparator in the xenograft studies [reference compound] | 6/6 | 8 out of 8 mice/group |  |  |  |  |  |  |  | 
2 | VH4/VL4 antibody (antibody, V domains shown) VH: QVQLVQSGAEVKKPGASVKVSCKASGYTFTDYYITWVRQAPGQGLEWMGWIYPGSGNTKYNEKFKGRVTITVDTSASTAYMELSSLRSEDTAVYYCANYGNYWFAYWGQGTLVTVSS VL: DIVLTQSPDSLAVSLGERATINCKASQSVDFDGDSYMNWYQQKPGQPPKLLIYAASNRESGVPDRFSGSGSGTDFTLTISSLQAEDVAVYYCQQSNEDPWTFGGGTKVEIK |  |  | minimal activity | minimal activity |  |  |  |  |  | 
3 | H4/L4 (conjugate) VH: QVQLVQSGAEVKKPGASVKVSCKASGYTFTDYYITWVRQAPGQGLEWMGWIYPGSGNTKYNEKFKGRVTITVDTSASTAYMELSSLRSEDTAVYYCANYGNYWFAYWGQGTLVTVSS VL: DIVLTQSPDSLAVSLGERATINCKASQSVDFDGDSYMNWYQQKPGQPPKLLIYAASNRESGVPDRFSGSGSGTDFTLTISSLQAEDVAVYYCQQSNEDPWTFGGGTKVEIK |  |  |  |  | 7.70% | 1.66% | 23.28% | 3.14% | 82 °C | 80.43 °C
4 | H1/L4 (conjugate) VH: QVQLQQSGPEVVKPGASVKVSCKASGYTFTDYYMTWVRQKPGQGLEWMGWIYPGSGNTKYNQKFKGRVTITVDTSSSTAFMELSSLTSEDTAVYFCANYGNYWFAYWGQGTQVTVSA VL: DIVLTQSPDSLAVSLGERATINCKASQSVDFDGDSYMNWYQQKPGQPPKLLIYAASNRESGVPDRFSGSGSGTDFTLTISSLQAEDVAVYYCQQSNEDPWTFGGGTKVEIK |  |  |  |  | 10.05% | 1.66% | 16.42% | 2.90% | 80 °C | 81.17 °C
5 | H4/L2 (conjugate) VH: QVQLVQSGAEVKKPGASVKVSCKASGYTFTDYYITWVRQAPGQGLEWMGWIYPGSGNTKYNEKFKGRVTITVDTSASTAYMELSSLRSEDTAVYYCANYGNYWFAYWGQGTLVTVSS VL: DIVMTQSPASLAVSLGERATISCKSSQSVDFDGDSYLNWYQQKPGQPPKLLIYAASTRESGVPARFSGSGSGTDFTLTISSLQEEDVATYYCQQSNEDPWTFGGGTKVEIK |  |  |  |  | 6.18% | 1.24% | 30.38% | 2.37% | 73 °C | 75.54 °C
